Source: publication doi:10.1101/2024.08.29.610253 (2024)
Like-named read-outs stand apart in the source and are kept apart here.

T1: liprin-α2_CC2 (human, UniProt O75334 259-542)
T1 chain: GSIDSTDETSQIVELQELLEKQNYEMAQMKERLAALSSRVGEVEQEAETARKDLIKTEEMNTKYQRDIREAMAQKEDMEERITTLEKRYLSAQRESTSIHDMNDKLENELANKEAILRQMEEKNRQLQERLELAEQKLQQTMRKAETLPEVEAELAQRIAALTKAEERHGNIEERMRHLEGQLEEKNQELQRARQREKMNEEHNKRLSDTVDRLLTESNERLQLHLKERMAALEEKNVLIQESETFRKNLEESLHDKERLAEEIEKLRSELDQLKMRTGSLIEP

T2: liprin-α2_CC2N E380R (human, UniProt O75334 300-404, E380R)
T2 sequence: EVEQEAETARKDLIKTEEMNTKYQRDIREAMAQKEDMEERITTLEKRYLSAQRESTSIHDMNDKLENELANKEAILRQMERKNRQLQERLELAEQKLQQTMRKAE

T3: liprin-α2_CC2N A350S (human, UniProt O75334 300-404, A350S)
T3 sequence: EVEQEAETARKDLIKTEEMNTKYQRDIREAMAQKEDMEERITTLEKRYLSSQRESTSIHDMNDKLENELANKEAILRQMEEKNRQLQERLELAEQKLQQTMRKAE

B1: liprin-α2_CC2N (domain or fragment)
chain: EVEQEAETARKDLIKTEEMNTKYQRDIREAMAQKEDMEERITTLEKRYLSAQRESTSIHDMNDKLENELANKEAILRQMEEKNRQLQERLELAEQKLQQTMRKAE

Experiments:
Assay in all cases: ITC
[1] = molecular target: RIM1_C2B R1236E
[2] = molecular target: RIM1_C2B L1245Q
[3] = molecular target: RIM1_C2B K1240E
[4] = molecular target: RIM1_C2B L1245Q; remark: listed apart in the source
[5] = molecular target: RIM1_C2B R1236E; remark: listed apart in the source
[6] = molecular target: RIM1_C2B K1240E; remark: listed apart in the source
[7] = molecular target: B1
[8] = molecular target: T1, liprin-α2_CC2
[9] = molecular target: liprin-α2_CC2N R383A
[10] = molecular target: liprin-α2_CC2N E379R
[11] = molecular target: T2, liprin-α2_CC2N E380R
[12] = molecular target: liprin-α2_CC2N R383A; remark: listed apart in the source
[13] = molecular target: liprin-α2_CC2N E379R; remark: listed apart in the source
[14] = molecular target: T3, liprin-α2_CC2N A350S
[15] = molecular target: T2, liprin-α2_CC2N E380R; remark: listed apart in the source

Binder	Kd [1]	Kd [2]	Kd [3]	Kd [4]	Kd [5]	Kd [6]	Kd [7]	Kd [8]	Kd [9]	Kd [10]	Kd [11]	Kd [12]	Kd [13]	Kd [14]	Kd [15]
B1	27 µM	> 100 µM	25 µM	> 100 µM	27 µM	25 µM	–	–	–	–	–	–	–	–	–
RIM1_C2B (domain or fragment) GPAQLVGRQTLATPAMGDIQIGMEDKKGQLEVEVIRARSLTQKPGSKSTPAPYVKVYLLENGACIAKKKTRIARKTLDPLYQQSLVFDESPQGKVLQVIVWGDYGRMDHKCFMGVAQILLEELDLSSMVIGWYKLFPPSSLVDPTLAPLTRRASQSSLESSSGPPCIRS	–	–	–	–	–	–	4 µM	5 µM	24 µM	23 µM	8.2 µM	24 µM	23 µM	5.7 µM	8.2 µM
